Measurements as given in patent US7301005B2, “Immunomodulatory peptides derived from heat shock proteins and uses thereof” (priority 2000, dated 2007).

What was measured:
[1] = test system: RA patients; experiment: Phase I clinical trial of mucosal tolerization to dnaJP1; type: in vivo, human; conditions: 15 RA patients, by mouth, 6 months
Experimental: FIGS. 26A to 26E show the results of treatment-induced modulation of T cell responses to dnaJP1. […] Evaluation was performed at monthly intervals. Controls included PHA as a general mitogen and dnaJpv (SEQ ID NO:28). Evaluation by FACS at monthly intervals of intracellular cytokine production (pro-inflammatory—FIGS. 26 B, C and D; toleragenic—FIG. 26E) by PBMC of the patients who were responsive at the screening. Results are expressed as % CD3+ cells in dnaJP1 stimulated/unstimulated cultures.
In the Phase I clinical trial, 15 RA patients were treated with three different doses of dnaJP1 (four times per day, by mouth) for 6 months. Entry criteria required clinically active disease and pro-inflammatory T cell responsiveness in vitro to the peptide.

[2] = test system: SFMC from patients with oJIA; experiment: Proliferative response of SFMC incubated with dnaJ and restimulated with autologous feeder cells plus peptide; type: cell-based, human; conditions: persistent n=16, extended n=15; p=0.05
Experimental: Results, expressed as stimulation index (SI), are shown as mean+SD.
In order to identify possible relevant epitopes on the bacterial dnaJ protein, PBMC and SFMC of patients with oJIA were incubated for 72 hr with dnaJ, and restimulated with autologous feeder cells the in presence or absence of selected E. coli derived MHC class II binder peptides for 96 hr.
(§1) In order to evaluate whether human homologous peptides could be the target of cross-recognition leading to self reactivity, human peptides derived from regions of HSJ1, HDJ1, or HDJ2 having sequence homology with E. coli dnaJ were studied. SFMC of 14 patients with oJIA presenting a SI to the recombinant E. coli hsp dnaJ greater than 3 were restimulated for 96 hr with autologous cells in presence or absence of human peptide 2, 3, or 5, which are homologs of bacterial peptide 4; human peptide 20, 21, or 23, which are homologs of bacterial peptide 22; or human peptide 164, 167, or 176, which are homologs of bacterial peptide 174. SFMC proliferative responses, pro-inflammatory cytokine production, and anti-inflammatory IL-4 levels were overall similar between the peptides derived from human dnaJ proteins and the homologous bacterial peptides.
Results are expressed as SI or pg/ml (mean+SD). […]
To explore the possible correlation of clinical features with the development of peptide-induced immune modulation, oJIA patients were grouped according to the course of disease, including those with persistent disease (n=16), and those with extended disease (n=15) o-JIA. (FIG. 25).

[3] = test system: SFMC from patients with oJIA; experiment: Cytokine production in culture supernatants of SFMC incubated with dnaJ and restimulated with autologous feeder cells plus peptide; type: cell-based, human
Excerpt: Results are expressed as pg/ml (mean+SD).
Cytokine production to the same peptides was examined in culture supernatants of SFMC from patients with oJIA. […] SFMC from only one of 21 patients with oJIA produced detectable levels of the anti-inflammatory cytokine IL-10, and none produced detectable levels of IL-4.
as §1
Results are expressed as SI or pg/ml (mean+SD).

[4] = test system: SFMC from patients with persistent oJIA; experiment: FACS analysis of CTLA+/CD25/CD4 positive cells after peptide stimulation; type: cell-based, human; conditions: FIG. 24A
Excerpt: “TC” indicates tissue culture not stimulated. Bars represent SD.
FACS analysis was used to evaluate the percent of CTLA+/CD25/CD4 positive cells following stimulation of representative SFMC from patients with persistent oJIA with non-homologous human peptide 134. The % of CTLA+/CD25/CD4 positive cells, which are believed to have a regulatory function, was higher in the peptide treated cells as compared to cells maintained under control conditions (FIG. 24A). Expansion of the regulatory cells in response to peptide 134 correlated well with production of IL-10 in the same culture conditions (FIG. 24B).

[5] = test system: peripheral blood mononuclear cells (PBMC); experiment: Proliferative response (stimulation index) of PBMC stimulated with antigen for 96 hr; type: cell-based, human; conditions: 10 healthy subjects vs 21 patients with oJIA
[6] = test system: PBMC and SFMC from healthy controls and patients with oJIA; experiment: Cytokine production in culture supernatants of PBMC or SFMC stimulated with recombinant E. coli hsp dnaJ for 72 hr; type: cell-based, human
Experimental: Results, expressed as pg/ml, are shown as mean+SD.
The production of the pro-inflammatory cytokines interferon-gamma (IFNγ) and tumor necrosis factor-alpha (TNFα), and the anti-inflammatory cytokines interleukin-4 (IL-4) and IL-10 was evaluated in culture supernatants of PBMC from healthy controls and in PBMC-SFMC paired samples from patients with oJIA incubated for 72 hr with or without dnaJ.

[7] = test system: CD3+CD69+ cells in PBMC and SFMC; experiment: Evaluation of activated CD3+CD69+ T cells after incubation with recombinant E. coli hsp dnaJ; type: cell-based, human; conditions: p=0.0002
Experimental: FIG. 1B provides an evaluation of CD69+ T cells from healthy subjects (CTRL) and patients with oJIA following 72 hour incubation with recombinant E. coli hsp dnaJ. Results, expressed as percentage CD3+CD69+ cells, are shown as mean+SD.
To evaluate whether dnaJ-specific T cells were enriched at the synovial sites of inflammation, synovial fluid mononuclear cells (SFMC) from all patients with oJIA were stimulated with dnaJ for 96 hr.

[8] = test system: synovial fluid mononuclear cells (SFMC) from patients with oJIA; experiment: Proliferative response (stimulation index) of SFMC stimulated with antigen for 96 hr; type: cell-based, human; conditions: for ratio SI SFMC/SI PBMC, dnaJ compared with TT: paired PBMC-SFMC samples from oJIA patients

QKRAAYDQYGHAAFE (listed as Escherichia coli) [dnaJP1]
treatment-induced change of T cell cytokine responses [1]: dramatic immune deviation from pro-inflammatory to regulatory-type cytokines

SGPFFTFSSSFPGHS (listed as Homo sapiens) [Peptide 134, non-homologous human peptide (HSJ1)]
Proliferative responses, extended disease vs persistent o-JIA [2]: significantly lower
IL-10 production, extended disease vs persistent o-JIA ([3]; p=0.0012): highly significant difference
IFN production, extended disease vs persistent o-JIA ([3]; p=0.076): border line level of statistical significance
% of CTLA+/CD25/CD4 positive cells vs control conditions [4]: higher

B1: dnaJ: recombinant E. coli heat shock protein dnaJ (protein, UniProt P08622 2-376, looked up)
Chaperone protein DnaJ: AKQDYYEILGVSKTAEEREIRKAYKRLAMKYHPDRNQGDKEAEAKFKEIKEAYEVLTDSQKRAAYDQYGHAAFEQGGMGGGGFGGGADFSDIFGDVFGDIFGGGRGRQRAARGADLRYNMELTLEEAVRGVTKEIRIPTLEECDVCHGSGAKPGTQPQTCPTCHGSGQVQMRQGFFAVQQTCPHCQGRGTLIKDPCNKCHGHGRVERSKTLSVKIPAGVDTGDRIRLAGEGEAGEHGAPAGDLYVQVQVKQHPIFEREGNNLYCEVPINFAMAALGGEIEVPTLDGRVKLKVPGETQTGKLFRMRGKGVKSVRGGAQGDLLCRVVVETPVGLNERQKQLLQELQESFGGPTGEHNSPRSKSFFDGVKKFFDDLTR
Proliferative responses of PBMC, healthy subjects vs oJIA patients [5]: not significantly different
cytokine production from PBMC of patients and controls ([6]; 72 hr): no difference
IL-4 levels ([6]; controls and patients, supernatants from PBMC and SFMC): below the detection limit
IL-10 production, SFMC vs PBMC ([6]; oJIA patients, 72 hr): comparable in the two compartments
TNFα production, SFMC vs PBMC ([6]; oJIA patients, 72 hr): comparable in the two compartments
IFNγ production, SFMC vs PBMC ([6]; oJIA patients, 72 hr, p<0.01): significantly higher production
percentage of activated T cells (CD3+CD69+ cells), SFMC with respect to PBMC [7]: significantly higher
mean stimulation index (SI) of SFMC vs corresponding PBMC ([8]; oJIA patients, 96 hr, p=0.01): significantly higher
ratio SI SFMC/SI PBMC, dnaJ compared with TT [8]: significantly (p=0.038) higher
ratio SI SFMC/SI PBMC, dnaJ compared with TT ([8]; listed as recombinant dnaJ): significantly (p<0.02) greater
